Measurements from the supplement of paper PMC7125110.
± gives the standard error. Fewer inactive variants are shown than the library holds.

B1: glmS ribozyme (parent)
chain: AUAAAAGCGCCAGAACUACAGAAAUGUAGUUGACGAGGAGGAGGUUUAUCGAAUUUUCGGCGGAUGCCUCCAAA

How the values were obtained:
Settings in all cases: with glucosamine-6-phosphate
[1] = variants of: B1; test: self-cleavage kobs at 40 uM GlcN6P; higher = faster cleavage; RNA array
In short: (§1)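 Tracking of barcoded ribozyme variants used a hybridised Cy3 probe at 37 °C, after in situ transcription by E. coli RNA polymerase on sequenced MiSeq chips. The flowed solution held 40 μM to 10 mM glucosamine-6-phosphate in HEPES/KCl/Mg(OAc)2 buffer, and imaging ran over ~14 h. kobs was taken from exponential decay fits of normalised per-tile medians, and kcat and KM from weighted Michaelis–Menten fits.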

[2] = variants of: B1; test: self-cleavage kobs at 160 uM GlcN6P; higher = faster cleavage; RNA array
In short: as §1

[3] = variants of: B1; test: self-cleavage kobs at 640 uM GlcN6P; higher = faster cleavage; RNA array
In short: as §1

[4] = variants of: B1; test: self-cleavage kobs at 10000 uM GlcN6P; higher = faster cleavage; RNA array
In short: as §1

[5] = variants of: B1; test: self-cleavage kobs at 2500 uM GlcN6P; higher = faster cleavage; RNA array
In short: as §1

Variant | self-cleavage kobs at 40 uM GlcN6P [1] [s⁻¹] | self-cleavage kobs at 160 uM GlcN6P [2] [s⁻¹] | self-cleavage kobs at 640 uM GlcN6P [3] [s⁻¹] | self-cleavage kobs at 10000 uM GlcN6P [4] [s⁻¹] | self-cleavage kobs at 2500 uM GlcN6P [5] [s⁻¹]
G43U G60C | < 1e-05 | < 1e-05 | < 1e-05 | < 1e-05 | –
C8A G35C | < 1e-05 | < 1e-05 | < 1e-05 | < 1e-05 | < 1e-05
G38A C50G C68U | 7.89e-05 ± 2.3e-05 | – | 8.33e-05 ± 3.1e-05 | 4.82e-05 ± 1.5e-05 | 0.000109 ± 2.4e-05
A52U G60U C67U | < 1e-05 | – | – | < 1e-05 | –
G7C C16A U47C A53U | < 1e-05 | – | – | < 1e-05 | –
G60U G63A | < 1e-05 | < 1e-05 | – | – | –
C34U U45C | < 1e-05 | < 1e-05 | – | < 1e-05 | < 1e-05
A52U G63U | < 1e-05 | < 1e-05 | – | < 1e-05 | –
G63A G66U | < 1e-05 | – | < 1e-05 | < 1e-05 | < 1e-05
G32A C50G U56G C70U | 0.000356 ± 7.7e-05 | – | – | 0.00032 ± 7.2e-05 | –
C8A C10A | < 1e-05 | < 1e-05 | < 1e-05 | – | –
C16A G40C | < 1e-05 | – | 4.46e-05 ± 1.5e-05 | – | 0.000112 ± 1.8e-05
C11A A15C G43A | < 1e-05 | – | – | < 1e-05 | –
C10A C11A | < 1e-05 | – | < 1e-05 | < 1e-05 | –
C10G A53U G59A C70G | < 1e-05 | – | – | < 1e-05 | –
C50G U54G G60A C70G | < 1e-05 | – | < 1e-05 | – | –
C8U C68U C70U | < 1e-05 | – | – | < 1e-05 | –
C11A G44C | < 1e-05 | < 1e-05 | < 1e-05 | – | < 1e-05
C10A G13C | < 1e-05 | < 1e-05 | – | < 1e-05 | < 1e-05
C11G A33G G40C | < 1e-05 | – | – | < 1e-05 | –
A33G G60C C61U | < 1e-05 | – | < 1e-05 | < 1e-05 | –
U55C G63U U69A | < 1e-05 | – | < 1e-05 | < 1e-05 | –
A36C G43A U55A C71U | < 1e-05 | – | < 1e-05 | < 1e-05 | < 1e-05

Variant | self-cleavage kobs at 40 uM GlcN6P [1] [s⁻¹] | self-cleavage kobs at 160 uM GlcN6P [2] [s⁻¹] | self-cleavage kobs at 640 uM GlcN6P [3] [s⁻¹] | self-cleavage kobs at 10000 uM GlcN6P [4] [s⁻¹] | self-cleavage kobs at 2500 uM GlcN6P [5] [s⁻¹]
G43A A48U | < 1e-05 | < 1e-05 | < 1e-05 | < 1e-05 | < 1e-05
C34G G38U G40C C68A | < 1e-05 | – | – | < 1e-05 | –
G35A A36G | < 1e-05 | < 1e-05 | < 1e-05 | – | < 1e-05
A36U C50U A52G C70G | 0.000113 ± 3.1e-05 | – | 0.000329 ± 7.9e-05 | – | 0.000173 ± 8.2e-05
G7A G44C A48U C68U | < 1e-05 | – | – | < 1e-05 | –
U46C C61U | < 1e-05 | < 1e-05 | < 1e-05 | – | < 1e-05
C11U U49C | < 1e-05 | < 1e-05 | < 1e-05 | – | < 1e-05
G40C G51U | < 1e-05 | < 1e-05 | < 1e-05 | < 1e-05 | < 1e-05
C8G A15G A39G C67G | < 1e-05 | – | – | – | –
G43A A64U C67U | < 1e-05 | – | < 1e-05 | < 1e-05 | < 1e-05
C10G U47C U54C | < 1e-05 | – | – | – | < 1e-05
G7A G41C | < 1e-05 | < 1e-05 | < 1e-05 | – | < 1e-05
C16U G63C | < 1e-05 | – | < 1e-05 | < 1e-05 | –
A12U A15C U55A | 0.000587 ± 0.00012 | – | – | 0.012 ± 0.0027 | –
G62U G63U | < 1e-05 | < 1e-05 | – | < 1e-05 | < 1e-05
A6C C10U C67A | < 1e-05 | – | – | – | –
C16U C50A A52C U65C G66U | < 1e-05 | – | < 1e-05 | – | –
A6C A52G A53G | < 1e-05 | – | – | – | –
G29A G38A A39U | < 1e-05 | – | < 1e-05 | < 1e-05 | –
G40A U55C C61A | < 1e-05 | – | – | – | –
C11A U45C A48G | < 1e-05 | – | < 1e-05 | < 1e-05 | < 1e-05
G32C A48C G60C | < 1e-05 | – | – | – | –
